Assay [1] deals with biotinylated ARR1-REC-GARP (ARR1 residues 1-296), construct for BLI (Arabidopsis thaliana) (UniProt Q940D0). Nature of the assay: BLI; biotinylated ARR1-REC-GARP immobilised on Octet SA biosensors, AHPs as analytes; fit of the steady-state data; 20 mM HEPES/NaOH pH 7.0, 50 mM NaCl, 50 mM KCl, 0.5 mM TCEP, 0.5% BSA, 0.05% Tween 20; 25°C.
For assay [2] the target is unchanged. Nature of the assay: BLI; biotinylated ARR1-REC-GARP immobilised on Octet SA biosensors, AHPs as analytes; fit of the binding kinetics; 20 mM HEPES/NaOH pH 7.0, 50 mM NaCl, 50 mM KCl, 0.5 mM TCEP, 0.5% BSA, 0.05% Tween 20; 25°C. In general terms: Biolayer interferometry detects binding as a change in optical thickness at a sensor tip.
The target of assay [3] is T1, ARR1-REC-GARP (ARR1 residues 38-296), construct for structural studies (Arabidopsis thaliana, UniProt Q940D0 38-296).
T1 construct: ARR1, Arabidopsis thaliana, UniProt Q940D0, residues 38-296: REC domain (38-158), linker (159-235, not visible in the map), GARP motif (236-296); cloned into pMCSG53; TEV protease was not able to cleave the His-tag, so it stayed on the protein; also called ARR1-RG; source: E. coli BL21 Gold, purified (Ni-NTA; then SEC of the complex)
T1 sequence (looked up): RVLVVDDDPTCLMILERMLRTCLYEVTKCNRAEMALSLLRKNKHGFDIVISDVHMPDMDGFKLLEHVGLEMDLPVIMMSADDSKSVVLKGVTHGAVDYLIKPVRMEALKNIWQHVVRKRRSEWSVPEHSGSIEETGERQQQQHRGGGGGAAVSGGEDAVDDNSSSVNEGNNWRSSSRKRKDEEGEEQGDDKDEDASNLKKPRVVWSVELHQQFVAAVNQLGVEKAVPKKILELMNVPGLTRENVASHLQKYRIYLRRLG
Nature of the assay: crystal structure; complex from mixing 1 ARR1 : 1.5 AHP1, purified by SEC; crystals from Morpheus G11, pH 8.5, 32.5 mg/mL; 2.9 Å; two complexes in the asymmetric unit. The settings on record: both partners purified. In general terms: In gel filtration, larger molecules generally elute earlier.

In assay [4] the target is T2, biotinylated ARR1-REC-GARP (ARR1 residues 1-296), construct for BLI (Arabidopsis thaliana, UniProt Q940D0 1-296, biotin on the Avi-tag (by co-expressed BirA)).
T2 construct: ARR1, Arabidopsis thaliana, UniProt Q940D0, residues 1-296 (REC domain and GARP motif); cloned into pMCSG62, which provides the Avi-tag; The results define ARR1-RG as 38-296; the methods give 1-296 for the BLI construct; also called ARR1-RG; biotinylated variant of ARR1-RG; source: E. coli BL21 Gold, co-expressed with BirA, purified (Ni-NTA)
T2 sequence (looked up): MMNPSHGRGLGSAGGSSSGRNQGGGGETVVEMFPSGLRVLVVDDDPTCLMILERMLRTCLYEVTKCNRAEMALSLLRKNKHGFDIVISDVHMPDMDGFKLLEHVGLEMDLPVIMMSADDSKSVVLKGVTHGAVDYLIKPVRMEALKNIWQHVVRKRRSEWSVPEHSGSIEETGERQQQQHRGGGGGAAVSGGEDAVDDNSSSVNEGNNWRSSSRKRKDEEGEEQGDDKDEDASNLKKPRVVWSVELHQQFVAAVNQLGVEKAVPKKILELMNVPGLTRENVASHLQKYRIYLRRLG
Put plainly: BLI; biotinylated ARR1-REC-GARP immobilised on Octet SA biosensors, AHPs as analytes; fit of the steady-state data; 20 mM HEPES/NaOH pH 7.0, 50 mM NaCl, 50 mM KCl, 0.5 mM TCEP, 0.5% BSA, 0.05% Tween 20; 25°C. The settings on record: both partners purified.

The target in assay [5] is T2, biotinylated ARR1-REC-GARP (ARR1 …). Nature of the assay: BLI; biotinylated ARR1-REC-GARP immobilised on Octet SA biosensors, AHPs as analytes; fit of the binding kinetics; 20 mM HEPES/NaOH pH 7.0, 50 mM NaCl, 50 mM KCl, 0.5 mM TCEP, 0.5% BSA, 0.05% Tween 20; 25°C. The settings on record: both partners purified.

Usually Kd stands for the concentration at which binding is half-saturated. High values mean lower affinity, low ones higher affinity. A word on the koff: it is the rate constant with which the complex falls apart. The low end stands for a long-lived complex, the high end for a short-lived complex. What is called kon is a measure of how fast the partners come together. The low end stands for slow association, the high end for fast association. As usually defined, the stoichiometry N is a count of units in the complex or per binding partner.

Consider “AHP2 (Arabidopsis histidine-containing phosphotransfer protein 2) (natural protein)”, for which the equilibrium dissociation constant (Kd) in assay [1] came to 160 nM. In addition, in assay [2], the Kd was 160 nM, the koff is 0.0913 s⁻¹ and the kon came out at 573000 M⁻¹ s⁻¹.

With “AHP3 (Arabidopsis histidine-containing phosphotransfer protein 3) (natural protein)”, in assay [1], the equilibrium dissociation constant (Kd) stood at 175 nM. In assay [2], this molecule had an equilibrium dissociation constant (Kd) of 174 nM, a koff of 0.0917 s⁻¹ and an association rate constant (kon) of 522000 M⁻¹ s⁻¹.

In the case of “AHP4 (Arabidopsis histidine-containing phosphotransfer protein 4) (natural protein)”, in assay [1], the Kd is 170 nM. In assay [2], this molecule yielded a Kd of 166 nM, a koff of 0.06 s⁻¹ and a kon of 360000 M⁻¹ s⁻¹.

On to “AHP5 (Arabidopsis histidine-containing phosphotransfer protein 5) (natural protein)”, for which the Kd in assay [1] was 150 nM. In assay [2], this molecule yielded a Kd of 152 nM, a koff of 0.089 s⁻¹ and a kon of 588000 M⁻¹ s⁻¹.

B1: AHP1 (Arabidopsis histidine-containing phosphotransfer protein 1), full length (natural protein, Arabidopsis thaliana, UniProt Q9ZNV9 1-154, looked up)
chain: MDLVQKQKSLQDYTKSLFLEGILDSQFLQLQQLQDESNPDFVSQVVTLFFQDSDRILNDLSLSLDQQVVDFKKVDPHVHQLKGSSSSIGAQRVKNACVVFRSFCEQQNVEACHRCLQQVKQEYYLVKNRLETLFKLEQQIVASGGMIPAVELGF
notes: AHP1, Arabidopsis thaliana, UniProt Q9ZNV9, full-length protein cloned from A. thaliana cDNA into pMCSG53; Unphosphorylated; source: E. coli BL21 Gold, purified (Ni-NTA, TEV digestion, second Ni-NTA, SEC)
Consider B1, for which the “stoichiometry N” value in assay [3] amounted to 1. The same molecule came in with a Kd in assay [4] of 94 nM. In addition, in assay [5], the Kd is 94 nM, the koff is 0.0423 s⁻¹ and the kon was 444000 M⁻¹ s⁻¹.

These data come from paper PMC11903765, “ARR1 and AHP interactions in the multi-step phosphorelay system” (Frontiers in Plant Science, 2025).
